The source of these data is patent publication CN114805589A.

Assay [1] concerns the target 绵羊IgG (绵羊 (sheep)). Briefly: indirect ELISA, IgG coated at 1 ug/mL, HRP goat anti-mouse IgG detection, OD450. Conditions: scale: reciprocal dilution. A general note: ELISA stands for enzyme-linked immunosorbent assay.
Assay [2] deals with 牛IgG (牛 (bovine)). The description is as above. To be noted: scale: reciprocal dilution.
Assay [3] has as its target 山羊IgG (山羊 (goat)). The assay is described as above. Conditions: scale: reciprocal dilution.
Assay [4] deals with 绵羊IgG (绵羊 (sheep)). As to the kind of experiment: direct magnetic-particle chemiluminescence, IgG on magnetic particles, HRP-labelled 4C-1 at 1:4000.
The target of assay [5] is 牛IgG (牛 (bovine)). The assay is described as above.
For assay [6], the target named is 山羊IgG (山羊 (goat)). The description is as above.

B1: 鼠单克隆抗体 二抗4C-1 (antibody, part only; not given: Light chain variable domain, V domains shown, part only)
VH: QVQLKQSGPELVKPGASVKMSCKASGYTFTSYVIHWVKQKPGQGLEWIGYINPYNDNTEYNEKFKGKATLTSDKSSSTAYMELSSLTSEDSAVYYCARREGGYYVFTYWGQGTLVTVSA
On to B1, for which the 效价 (titer) in the assay with 绵羊IgG (绵羊 (sheep)) [1], with 牛IgG (牛 (bovine)) [2] and with 山羊IgG (山羊 (goat)) [3] was over 256000 in each case. The 发光值 (luminescence value) with 绵羊IgG (绵羊 (sheep)) [4], with 牛IgG (牛 (bovine)) [5] and with 山羊IgG (山羊 (goat)) [6] was > 100000 发光值 each time.
